The values that follow come from PMC7406681, “Structural characterization of the C-terminal domain of SARS-CoV-2 nucleocapsid protein”.

For series [1], the target named is T1, SARS-CoV-2 nucleocapsid C-terminal domain (N-CTD) (SARS-CoV-2 (Wuhan-Hu-1), UniProt P0DTC9 248-364). The series is described as follows: EMSA; N-CTD:DNA molar ratios 2:1 to 10:1. The note with it: protein: recombinant, tags: N-terminal His6 removed by TEV, residual Gly-Ala-Ser at N-terminus, chain copies: 2. In general terms: Mobility shift assays separate free from complexed probe on a gel.

Series [2] deals with T1, SARS-CoV-2 nucleocapsid C-terminal …. Put plainly: EMSA. The conditions noted are these: protein: recombinant; tags: N-terminal His6 removed by TEV; residual Gly-Ala-Ser at N-terminus; chain copies: 2.

For the molecule TGTTCTCTAAACGAACT (ssDNA) [17-mer ssDNA (DNA mimic of SL3/TRS RNA)], the binding result in series [1] is reported as “binds”.

B1: 17-bp dsDNA (DNA mimic of SL3/TRS RNA) (dsDNA)
DNA 1: TGTTCTCTAAACGAACT
DNA 2: AGTTCGTTTAGAGAACA
For B1, the binding result in series [1] (blunt) is reported as “binds”. Take UGUUCUCUAAACGAACU (ssRNA) [17-mer ssRNA (5' UTR SL3/TRS)]: in series [2], the binding result was “binds”.
